In test [1] the target is T1, MYC-tagged JAK1, full length (UniProt P23458 1-1154).
T1 construct: also called MYC-JAK1; MYC-tagged full-length JAK1; source: HeLa, transfected, in lysate
Put plainly: co-IP; in vitro, purified proteins; truncated FLAG-tagged CNF1 proteins precipitated, MYC-tagged JAK1 detected and normalised to the FLAG-CNF1 in the IP. To be noted: both partners purified.

In test [2] the target is T2, Cytotoxic necrotizing factor 1 (CNF1), recombinant FLAG-tagged, full length (uropathogenic Escherichia coli (UPEC), UniProt Q47106 1-1014).
T2 construct: also called FLAG-CNF1; FLAG-tagged full-length CNF1; source: recombinant, purified (additionally by size exclusion chromatography)
Put plainly: co-IP; in vitro, purified proteins; truncated MYC-tagged JAK1 proteins precipitated, FLAG-tagged CNF1 detected and normalised to the MYC-JAK1 in the IP. To be noted: both partners purified.

B1: FLAG-CNF1 truncation mutant 1-720 (N2) (domain or fragment)
chain: MGNQWQQKYLLEYNELVSNFPSPERVVSDYIKNCFKTDLPWFSRIDPDNAYFICFSQNRSNSRSYTGWDHLGKYKTEVLTLTQAALINIGYRFDVFDDANSSTGIYKTKSADVFNEENEEKMLPSEYLHFLQKCDFAGVYGKTLSDYWSKYYDKFKLLLKNYYISSALYLYKNGELDEREYNFSMNALNRSDNISLLFFDIYGYYASDIFVAKNNDKVMLFIPGAKKPFLFKKNIADLRLTLKELIKDSDKQQLLSQHFSLYSRQDGVSYAGVNSVLHAIENDGNFNESYFLYSNKTLSNKDVFDAIAISVKKRSFSDGDIVIKSNSEAQRDYALTILQTILSMTPIFDIVVPEVSVPLGLGIITSSMGISFDQLINGDTYEERRSAIPGLATNAVLLGLSFAIPLLISKAGINQEVLSSVINNEGRTLNETNIDIFLKEYGIAEDSISSTNLLDVKLKSSGQHVNIVKLSDEDNQIVAVKGSSLSGIYYEVDIETGYEILSRRIYRTEYNNEILWTRGGGLKGGQPFDFESLNIPVFFKDEPYSAVTGSPLSFINDDSSLLYPDTNPKLPQPTSEMDIVNYVKGSGSFGDRFVTLMRGATEEEAWNIASYHTAGGSTEELHEILLGQGPQSSLGFTEYTSNVNSADAASRRHFLVVIKVHVKYITNNNVSYVNHWAIPDEAPVEVLAVVDRRFNFPEPSTPPDISTIRKLLSLRYFKES
notes: source: recombinant, purified
As for B1, in test [1], the binding result is recorded as “binds”.

B2: MYC-JAK1 truncation mutant 1-855 (domain or fragment)
chain: MQYLNIKEDCNAMAFCAKMRSSKKTEVNLEAPEPGVEVIFYLSDREPLRLGSGEYTAEELCIRAAQACRISPLCHNLFALYDENTKLWYAPNRTITVDDKMSLRLHYRMRFYFTNWHGTNDNEQSVWRHSPKKQKNGYEKKKIPDATPLLDASSLEYLFAQGQYDLVKCLAPIRDPKTEQDGHDIENECLGMAVLAISHYAMMKKMQLPELPKDISYKRYIPETLNKSIRQRNLLTRMRINNVFKDFLKEFNNKTICDSSVSTHDLKVKYLATLETLTKHYGAEIFETSMLLISSENEMNWFHSNDGGNVLYYEVMVTGNLGIQWRHKPNVVSVEKEKNKLKRKKLENKHKKDEEKNKIREEWNNFSYFPEITHIVIKESVVSINKQDNKKMELKLSSHEEALSFVSLVDGYFRLTADAHHYLCTDVAPPLIVHNIQNGCHGPICTEYAINKLRQEGSEEGMYVLRWSCTDFDNILMTVTCFEKSEQVQGAQKQFKNFQIEVQKGRYSLHGSDRSFPSLGDLMSHLKKQILRTDNISFMLKRCCQPKPREISNLLVATKKAQEWQPVYPMSQLSFDRILKKDLVQGEHLGRGTRTHIYSGTLMDYKDDEGTSEEKKIKVILKVLDPSHRDISLAFFEAASMMRQVSHKHIVYLYGVCVRDVENIMVEEFVEGGPLDLFMHRKSDVLTTPWKFKVAKQLASALSYLEDKDLVHGNVCTKNLLLAREGIDSECGPFIKLSDPGIPITVLSRQECIERIPWIAPECVEDSKNLSVAADKWSFGTTLWEICYNGEIPLKDKTLIEKERFYESRCRPVTPSCKELADLMTRCMNYDPNQRPFFRAIMRDINKLEEQNPDI
notes: source: recombinant, purified
For B2, in test [2], the binding result is “binds”.

B3: FLAG-CNF1 truncation mutant 190-1014 (C1) (domain or fragment)
chain: RSDNISLLFFDIYGYYASDIFVAKNNDKVMLFIPGAKKPFLFKKNIADLRLTLKELIKDSDKQQLLSQHFSLYSRQDGVSYAGVNSVLHAIENDGNFNESYFLYSNKTLSNKDVFDAIAISVKKRSFSDGDIVIKSNSEAQRDYALTILQTILSMTPIFDIVVPEVSVPLGLGIITSSMGISFDQLINGDTYEERRSAIPGLATNAVLLGLSFAIPLLISKAGINQEVLSSVINNEGRTLNETNIDIFLKEYGIAEDSISSTNLLDVKLKSSGQHVNIVKLSDEDNQIVAVKGSSLSGIYYEVDIETGYEILSRRIYRTEYNNEILWTRGGGLKGGQPFDFESLNIPVFFKDEPYSAVTGSPLSFINDDSSLLYPDTNPKLPQPTSEMDIVNYVKGSGSFGDRFVTLMRGATEEEAWNIASYHTAGGSTEELHEILLGQGPQSSLGFTEYTSNVNSADAASRRHFLVVIKVHVKYITNNNVSYVNHWAIPDEAPVEVLAVVDRRFNFPEPSTPPDISTIRKLLSLRYFKESIESTSKSNFQKLSRGNIDVLKGRGSISSTRQRAIYPYFEAANADEQQPLFFYIKKDRFDNHGYDQYFYDNTVGLNGIPTLNTYTGEIPSDSSSLGSTYWKKYNLTNETSIIRVSNSARGANGIKIALEEVQEGKPVIITSGNLSGCTTIVARKEGYIYKVHTGTTKSLAGFTSTTGVKKAVEVLELLTKEPIPRVEGIMSNDFLVDYLSENFEDSLITYSSSEKKPDSQITIIRDNVSVFPYFLDNIPEHGFGTSATVLVRVDGNVVVRSLSESYSLNADASEISVLKVFSKKF
notes: source: recombinant, purified
As for B3, in test [1], the binding result is “binds”.

B4: MYC-JAK1 truncation mutant 1-544 (domain or fragment)
chain: MQYLNIKEDCNAMAFCAKMRSSKKTEVNLEAPEPGVEVIFYLSDREPLRLGSGEYTAEELCIRAAQACRISPLCHNLFALYDENTKLWYAPNRTITVDDKMSLRLHYRMRFYFTNWHGTNDNEQSVWRHSPKKQKNGYEKKKIPDATPLLDASSLEYLFAQGQYDLVKCLAPIRDPKTEQDGHDIENECLGMAVLAISHYAMMKKMQLPELPKDISYKRYIPETLNKSIRQRNLLTRMRINNVFKDFLKEFNNKTICDSSVSTHDLKVKYLATLETLTKHYGAEIFETSMLLISSENEMNWFHSNDGGNVLYYEVMVTGNLGIQWRHKPNVVSVEKEKNKLKRKKLENKHKKDEEKNKIREEWNNFSYFPEITHIVIKESVVSINKQDNKKMELKLSSHEEALSFVSLVDGYFRLTADAHHYLCTDVAPPLIVHNIQNGCHGPICTEYAINKLRQEGSEEGMYVLRWSCTDFDNILMTVTCFEKSEQVQGAQKQFKNFQIEVQKGRYSLHGSDRSFPSLGDLMSHLKKQILRTDNISFMLKRCC
notes: source: recombinant, purified
Regarding B4, in test [2], the binding result is reported as “binds”.

(Values after publication PMC9426534, “Interactions of Bacterial Toxin CNF1 and Host JAK1/2 Driven by Liquid-Liquid Phase Separation Enhance Macrophage Polarization” (mBio, 2022).)
